1 substance from paper PMC6910923, “Novel halo- and thermo-tolerant Cohnella sp. A01 L-glutaminase: heterologous expression and biochemical characterization” (Scientific Reports, 2019) can be followed below.

In this data set the test system is NC(=O)CC[C@H](N)C(=O)O. Put plainly: purified protein. The settings on record: MgCl2 present, 0-25 mM substrate, standard assay pH 8 phosphate, 50 °C.

As for rSAM (L-glutaminase) (Cohnella sp.), the Michaelis-Menten constant (Km) was found to be 1800 µM.

For orientation: Km means the concentration of substrate that gives half-maximal velocity.
